T1: Glutathione S-transferase-fused VDAC3 (Arabidopsis, UniProt Q9SMX3 1-274)
T1 sequence (looked up): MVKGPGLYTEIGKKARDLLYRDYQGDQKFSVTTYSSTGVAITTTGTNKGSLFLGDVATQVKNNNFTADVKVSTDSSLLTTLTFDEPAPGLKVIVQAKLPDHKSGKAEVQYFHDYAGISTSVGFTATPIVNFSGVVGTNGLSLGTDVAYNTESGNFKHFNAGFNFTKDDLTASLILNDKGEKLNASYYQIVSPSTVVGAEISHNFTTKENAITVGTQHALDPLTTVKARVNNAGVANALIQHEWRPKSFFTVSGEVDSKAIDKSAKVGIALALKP

T2: Glutathione S-transferase-fused VDAC1 (Arabidopsis, UniProt Q9SRH5 1-276)
T2 sequence (looked up): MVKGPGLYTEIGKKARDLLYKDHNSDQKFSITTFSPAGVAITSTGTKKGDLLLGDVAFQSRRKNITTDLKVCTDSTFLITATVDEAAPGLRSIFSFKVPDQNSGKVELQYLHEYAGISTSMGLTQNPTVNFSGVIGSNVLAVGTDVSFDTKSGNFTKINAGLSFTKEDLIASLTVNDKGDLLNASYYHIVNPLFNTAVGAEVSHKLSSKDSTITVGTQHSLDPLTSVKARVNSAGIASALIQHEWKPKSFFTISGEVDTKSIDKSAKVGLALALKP

T3: Glutathione S-transferase-fused VDAC2 (Arabidopsis, UniProt Q9FJX3 1-276)
T3 sequence (looked up): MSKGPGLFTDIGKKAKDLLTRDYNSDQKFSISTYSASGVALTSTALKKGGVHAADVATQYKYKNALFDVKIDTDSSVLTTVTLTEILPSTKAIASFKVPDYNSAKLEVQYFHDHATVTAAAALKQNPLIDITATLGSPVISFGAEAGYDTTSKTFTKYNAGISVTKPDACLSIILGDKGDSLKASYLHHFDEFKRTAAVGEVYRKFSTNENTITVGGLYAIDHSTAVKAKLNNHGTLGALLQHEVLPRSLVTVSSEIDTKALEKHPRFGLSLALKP


How the values were obtained:
Experiment in all cases: pull-down
[1] = biological target: T1, Glutathione S-transferase-fused VDAC3
[2] = biological target: T2, Glutathione S-transferase-fused VDAC1
[3] = biological target: T3, Glutathione S-transferase-fused VDAC2

Row | binding result [1] | binding result [2] | binding result [3] | Binder
1 | binds | binds | binds | 6×His-tagged ATG8e (natural protein, Arabidopsis, UniProt Q8S926 1-118, looked up) MNKGSIFKMDNDFEKRKAEAGRIREKYPDRIPVIVEKAEKSEVPNIDKKKYLVPSDLTVGQFVYVIRKRIKLSAEKAIFIFVDNVLPPTGELMSSVYEDKKDEDGFLYITYSGENTFG
2 | binds | binds | binds | ATG8e with UDS mutation (I78A, F79A, I80A) (natural protein, Arabidopsis, UniProt Q8S926 1-118, looked up) MNKGSIFKMDNDFEKRKAEAGRIREKYPDRIPVIVEKAEKSEVPNIDKKKYLVPSDLTVGQFVYVIRKRIKLSAEKAAAAFVDNVLPPTGELMSSVYEDKKDEDGFLYITYSGENTFG

Source: paper doi:10.1101/2025.05.29.656919 (bioRxiv, 2025)
